Experimental data taken from US20200087400A1 (EUREKA THERAPEUTICS, published 2020).
Changes are numbered by the printed parent chain.

B1: PSA146/HLA-A*02:01-specific scFv phage clone #2 (scFv, V domains shown)
VH: EVQLVQSGAEVKRPGSSVKVSCKASGGTFSSYAINWVRRAPGQGLEWMGKIIPIPGITNYAQKFQDRVTFTADTSTNIAYMELSSLRSEDTAMYYCARSYKWGSSLVDAWGQGTLVTVSS
VL: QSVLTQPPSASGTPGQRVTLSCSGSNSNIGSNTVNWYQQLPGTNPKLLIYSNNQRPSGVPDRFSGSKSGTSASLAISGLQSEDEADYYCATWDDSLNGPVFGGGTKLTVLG
B2: PSA146/HLA-A*02:01-specific scFv phage clone #3 (scFv, V domains shown)
VH: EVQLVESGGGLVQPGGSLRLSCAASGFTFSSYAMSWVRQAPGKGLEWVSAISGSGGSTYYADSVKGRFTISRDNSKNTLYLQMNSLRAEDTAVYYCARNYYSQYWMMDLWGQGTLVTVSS
VL: QSVLTQPPSVSGAPGQRVTISCTGSSSNFGAGYDVHWYQQLPGAAPKLLIYGDTNRPSGVPDRFSGSKSGTSASLAITGLQAEDEADYYCQSYDTSLSGSVFGGGTKLTVLG
B3: PSA146/HLA-A*02:01-specific scFv phage clone #5 (scFv, V domains shown)
VH: QVQLVQSGAEVKKPGDSVKVSCKPSGYNFLNYGINWVRQAPGQGLEWMGWISTYTGNTNYAQKLQGRVTFTTDTSTSTAYMEMRSLRSDDTAVYYCARSSEYYTWDHWGQGTLVTVSS
VL: B2 VL with F29I, A44T, D53N, T54S, T95S, S100W
B4: PSA146/HLA-A*02:01-specific scFv phage clone #6 (scFv, V domains shown)
VH: EVQLVQSGAEVKKPGASVKVSCKASGYTFTGYYIHWVRQAPGQGLEWMGGFDPEDGETIYAQKFQDRVTMTADTSTDTAYMELSSLRSEDTAVYYCARYGFDYWGQGTLVTVSS
VL: QAVVTQEPSLTVSPGGTVTLTCASSTGAVTSGYYPNWFQLKPGQAPRALIYTTGKKHSWAPARFSGSLLGGKAALTLSGVQPEDEAEYYCLLYSGGVWVFGGGTKLTVLG
B5: PSA146/HLA-A*02:01-specific scFv phage clone #17 (scFv, V domains shown)
VH: QMQLVQSGAEVKKPGESLKISCKGSGYSFTSYWIGWVRQMPGKGLEWMGIIYPGDSDTRYSPSFQGQVTISADKSISTAYLQWSSLKASDTAMYYCARLVVPDAFDIWGQGTMVTVSS
VL: QSVVTQPPSVSAAPGQKVTISCSGSSSNIGNNYVSWYQQLPGTAPKLLIYDNYKRPSGIPDRFSGSKSGTSATLGITGLQTGDEADYYCGTWDSSLSAGVFGGGTKLTVLG

The binders below were run against T1, Bio-P19 member A2E-23 (chain 2 carries a C-terminal BirA substrate peptide (BSP), enzymatically biotinylated; the BSP letters are not given in the patent and are left out) (assay: phage ELISA, streptavidin plate, anti-M13-HRP).
T1 construct: also called biotinylated control peptide A2E-23/HLA-A*02:01 monomer
Method in brief: (§1)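 Phage ELISA: individual scFv phage clones from panning pools enriched against PSA146/HLA-A*02:01 were incubated in coated streptavidin plates; binding was detected with HRP anti-M13 and HRP substrate, read at 450 nm. For flow cytometry, T2 cells loaded with peptide and β2M were stained with purified phage clones.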
B1: no binding.
B2: no binding.
B3: no binding.
B4: no binding.

What follows are binders tested against T2, Bio-P19 member A2E-3 (chain 2 carries a C-terminal BirA substrate peptide (BSP), enzymatically biotinylated; the BSP letters are not given in the patent and are left out) (assay: phage ELISA, streptavidin plate, anti-M13-HRP).
T2 construct: also called biotinylated control peptide A2E-3/HLA-A*02:01 monomer
Method in brief: as §1
B1: no binding.
B2: no binding.
B3: no binding.
B4: no binding.

What follows are binders tested against T3, Bio-P19 member A2E-2 (chain 2 carries a C-terminal BirA substrate peptide (BSP), enzymatically biotinylated; the BSP letters are not given in the patent and are left out) (assay: phage ELISA, streptavidin plate, anti-M13-HRP).
T3 construct: also called biotinylated control peptide A2E-2/HLA-A*02:01 monomer
Method in brief: as §1
B1: no binding.
B2: no binding.
B3: no binding.
B4: no binding.

Each binder was assayed against T4, HLA-A*02:01 on T2 cells with no peptide loaded (human) (assay: flow cytometry, phage on T2 cells, anti-M13 + R-PE anti-mouse IgG).
T4 construct: TAP-deficient T2 cells, no peptide loaded from outside; also called T2 cells without peptide loading
Method in brief: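 Cells were loaded with peptides and β2M, stained sequentially with purified phage clones, mouse anti-M13 and R-PE anti-mouse IgG (30-60 min each, on ice, washed twice between), then analysed by flow cytometry. Clones came from panning pools enriched against PSA146/HLA-A*02:01.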
B1: no binding.
B2: no binding.
B3: no binding.
B5: no binding.
B4: no binding.

Each binder was assayed against T5, control peptide A2E-8/HLA-A*02:01 complex on T2 cells (member of the P19 mixture) (human) (assay: flow cytometry, phage on T2 cells).
T5 construct: Loaded on T2 cells as part of the mixture of 19 control peptides
Method: (§2) Individual phage clones from enriched phage display panning pools against PSA146/HLA-A*02:01 complex were incubated in the coated plates. Binding of the phage clones was detected by HRP-conjugated anti-M13 antibodies and developed using HRP substrate. The absorbance was read at 450 nm. […] Then, unique antibody clones were identified through DNA sequencing of ELISA-positive clones. […] T2 cells loaded with different peptides and β2M were first stained with purified scFv phage clones, followed by staining with a mouse anti-M13 mAb, and finally R-PE conjugated horse anti-mouse IgG from Vector Labs. Each step of the staining was performed for between 30-60 minutes on ice and the cells were washed twice between stainings. All 16 clones recognized PSA146-loaded T2 cells specifically. FIG. 3 provides examples of PSA146/HLA-A*02:01 specific phage clone binding to peptide-loaded T2 cells through FACS.
B1: no binding.
B2: no binding.
B3: no binding.
B5: no binding.
B4: no binding.

Each binder was assayed against T6, control peptide A2E-14/HLA-A*02:01 complex on T2 cells (member of the P19 mixture) (human) (assay: flow cytometry, phage on T2 cells).
T6 construct: Loaded on T2 cells as part of the mixture of 19 control peptides
Method: as §2
B1: no binding.
B2: no binding.
B3: no binding.
B5: no binding.
B4: no binding.

Each binder was assayed against T7, control peptide A2E-23/HLA-A*02:01 complex on T2 cells (member of the P19 mixture) (human) (assay: flow cytometry, phage on T2 cells).
T7 construct: Loaded on T2 cells as part of the mixture of 19 control peptides
Method: as §2
B1: no binding.
B2: no binding.
B3: no binding.
B5: no binding.
B4: no binding.

The binders below were run against T8, control peptide A2E-17/HLA-A*02:01 complex on T2 cells (member of the P19 mixture) (human) (assay: flow cytometry, phage on T2 cells).
T8 construct: Loaded on T2 cells as part of the mixture of 19 control peptides
Method: as §2
B1: no binding.
B2: no binding.
B3: no binding.
B5: no binding.
B4: no binding.

Each binder was assayed against T9, control peptide A2E-7/HLA-A*02:01 complex on T2 cells (member of the P19 mixture) (human) (assay: flow cytometry, phage on T2 cells).
T9 construct: Loaded on T2 cells as part of the mixture of 19 control peptides
Method: as §2
B1: no binding.
B2: no binding.
B3: no binding.
B5: no binding.
B4: no binding.

The binders below were run against T10, control peptide A2E-6/HLA-A*02:01 complex on T2 cells (member of the P19 mixture) (human) (assay: flow cytometry, phage on T2 cells).
T10 construct: Loaded on T2 cells as part of the mixture of 19 control peptides
Method: as §2
B1: no binding.
B2: no binding.
B3: no binding.
B5: no binding.
B4: no binding.

These binders were tested against T11, control peptide A2E-21/HLA-A*02:01 complex on T2 cells (member of the P19 mixture) (human) (assay: flow cytometry, phage on T2 cells).
T11 construct: Loaded on T2 cells as part of the mixture of 19 control peptides
Method: as §2
B1: no binding.
B2: no binding.
B3: no binding.
B5: no binding.
B4: no binding.

Each binder was assayed against T12, control peptide A2E-5/HLA-A*02:01 complex on T2 cells (member of the P19 mixture) (human) (assay: flow cytometry, phage on T2 cells).
T12 construct: Loaded on T2 cells as part of the mixture of 19 control peptides
Method: as §2
B1: no binding.
B2: no binding.
B3: no binding.
B5: no binding.
B4: no binding.

These binders were tested against T13, control peptide A2E-19/HLA-A*02:01 complex on T2 cells (member of the P19 mixture) (human) (assay: flow cytometry, phage on T2 cells).
T13 construct: Loaded on T2 cells as part of the mixture of 19 control peptides
Method: as §2
B1: no binding.
B2: no binding.
B3: no binding.
B5: no binding.
B4: no binding.

Each binder was assayed against T14, control peptide A2E-15/HLA-A*02:01 complex on T2 cells (member of the P19 mixture) (human) (assay: flow cytometry, phage on T2 cells).
T14 construct: Loaded on T2 cells as part of the mixture of 19 control peptides
Method: as §2
B1: no binding.
B2: no binding.
B3: no binding.
B5: no binding.
B4: no binding.

Each binder was assayed against T15, control peptide A2E-9/HLA-A*02:01 complex on T2 cells (member of the P19 mixture) (human) (assay: flow cytometry, phage on T2 cells).
T15 construct: Loaded on T2 cells as part of the mixture of 19 control peptides
Method: as §2
B1: no binding.
B2: no binding.
B3: no binding.
B5: no binding.
B4: no binding.

Each binder was assayed against T16, control peptide A2E-10/HLA-A*02:01 complex on T2 cells (member of the P19 mixture) (human) (assay: flow cytometry, phage on T2 cells).
T16 construct: Loaded on T2 cells as part of the mixture of 19 control peptides
Method: as §2
B1: no binding.
B2: no binding.
B3: no binding.
B5: no binding.
B4: no binding.

These binders were tested against T17, control peptide A2E-11/HLA-A*02:01 complex on T2 cells (member of the P19 mixture) (human) (assay: flow cytometry, phage on T2 cells).
T17 construct: Loaded on T2 cells as part of the mixture of 19 control peptides
Method: as §2
B1: no binding.
B2: no binding.
B3: no binding.
B5: no binding.
B4: no binding.

The binders below were run against T18, control peptide A2E-2/HLA-A*02:01 complex on T2 cells (member of the P19 mixture) (human) (assay: flow cytometry, phage on T2 cells).
T18 construct: Loaded on T2 cells as part of the mixture of 19 control peptides
Method: as §2
B1: no binding.
B2: no binding.
B3: no binding.
B5: no binding.
B4: no binding.

What follows are binders tested against T19, control peptide A2E-4/HLA-A*02:01 complex on T2 cells (member of the P19 mixture) (human) (assay: flow cytometry, phage on T2 cells).
T19 construct: Loaded on T2 cells as part of the mixture of 19 control peptides
Method: as §2
B1: no binding.
B2: no binding.
B3: no binding.
B5: no binding.
B4: no binding.

These binders were tested against T20, control peptide A2E-3/HLA-A*02:01 complex on T2 cells (member of the P19 mixture) (human) (assay: flow cytometry, phage on T2 cells).
T20 construct: Loaded on T2 cells as part of the mixture of 19 control peptides
Method: as §2
B1: no binding.
B2: no binding.
B3: no binding.
B5: no binding.
B4: no binding.

The binders below were run against T21, control peptide A2E-16/HLA-A*02:01 complex on T2 cells (member of the P19 mixture) (human) (assay: flow cytometry, phage on T2 cells).
T21 construct: Loaded on T2 cells as part of the mixture of 19 control peptides
Method: as §2
B1: no binding.
B2: no binding.
B3: no binding.
B5: no binding.
B4: no binding.

The binders below were run against T22, control peptide A2E-13/HLA-A*02:01 complex on T2 cells (member of the P19 mixture) (human) (assay: flow cytometry, phage on T2 cells).
T22 construct: Loaded on T2 cells as part of the mixture of 19 control peptides
Method: as §2
B1: no binding.
B2: no binding.
B3: no binding.
B5: no binding.
B4: no binding.

These binders were tested against T23, control peptide A2E-1/HLA-A*02:01 complex on T2 cells (member of the P19 mixture) (human) (assay: flow cytometry, phage on T2 cells).
T23 construct: Loaded on T2 cells as part of the mixture of 19 control peptides
Method: as §2
B1: no binding.
B2: no binding.
B3: no binding.
B5: no binding.
B4: no binding.
